Data set [1] has as its target C. thermophilum Vps1 GG (minimal GTPase-BSE fusion) (C. thermophilum). Put plainly: SEC-MALS. A general note: SEC sorts molecules by how far they enter the pores of the column.
The data set “SEC-MALS” deals with the molecule itself. Put plainly: SEC-MALS.

The record followed here is article PMC6168280 (The Journal of Cell Biology, 2018).

As for “C. thermophilum Vps1 GG (minimal GTPase-BSE fusion) (domain or fragment)”, the stoichiometry N in data set [1] was 2.

B1: S. cerevisiae Vps1 G436D (natural protein)
chain: MDEHLISTINKLQDALAPLGGGSQSPIDLPQITVVGSQSSGKSSVLENIVGRDFLPRGTGIVTRRPLVLQLINRRPKKSEHAKVNQTANELIDLNINDDDKKKDESGKHQNEGQSEDNKEEWGEFLHLPGKKFYNFDEIRKEIVKETDKVTGANSGISSVPINLRIYSPHVLTLTLVDLPGLTKVPVGDQPPDIERQIKDMLLKYISKPNAIILSVNAANTDLANSDGLKLAREVDPEGTRTIGVLTKVDLMDQGTDVIDILAGRVIPLRYGYIPVINRGQKDIEHKKTIREALENERKFFENHPSYSSKAHYCGTPYLAKKLNSILLHHIRQTLPEIKAKIEATLKKYQNELINLGPETMDSASSVVLSMITDFSNEYAGILDGEAKELSSQELSGGARISYVFHETFKNGVDSLDPFDQIKDSDIRTIMYNSSDSAPSLFVGTEAFEVLVKQQIRRFEEPSLRLVTLVFDELVRMLKQIISQPKYSRYPALREAISNQFIQFLKDATIPTNEFVVDIIKAEQTYINTAHPDLLKGSQAMVMVEEKLHPRQVAVDPKTGKPLPTQPSSSKAPVMEEKSGFFGGFFSTKNKKKLAALESPPPVLKATGQMTERETMETEVIKLLISSYFSIVKRTIADIIPKALMLKLIVKSKTDIQKVLLEKLYGKQDIEELTKENDITIQRRKECKKMVEILRNASQIVSSV
As to B1, in the data set “SEC-MALS”, the “stoichiometry N” value worked out at 2.

One may read the stoichiometry N as a count of units in the complex or per binding partner.
